Test results as given in publication PMC11980035, “Activation of automethylated PRC2 by dimerization on chromatin” (Molecular cell, 2024).

Molecular target: T1, Enhancer of zeste homolog 2 (EZH2), isoform 2, subunit of recombinant human PRC2, automethylated (human, UniProt Q15910-2 1-751, K510, K514 and K515 methylated to varying degrees (automethylation))
T1 construct: EZH2 isoform 2, human, full-length; Stood in the assay as a subunit of PRC2; also called EZH2^dist; EZH2^prox; source: as subunit of m1: HighFive / Trichoplusia ni insect cells, baculovirus, purified within PRC2
T1 sequence (Q15910 other isoform, or with tags, fused parts or gaps): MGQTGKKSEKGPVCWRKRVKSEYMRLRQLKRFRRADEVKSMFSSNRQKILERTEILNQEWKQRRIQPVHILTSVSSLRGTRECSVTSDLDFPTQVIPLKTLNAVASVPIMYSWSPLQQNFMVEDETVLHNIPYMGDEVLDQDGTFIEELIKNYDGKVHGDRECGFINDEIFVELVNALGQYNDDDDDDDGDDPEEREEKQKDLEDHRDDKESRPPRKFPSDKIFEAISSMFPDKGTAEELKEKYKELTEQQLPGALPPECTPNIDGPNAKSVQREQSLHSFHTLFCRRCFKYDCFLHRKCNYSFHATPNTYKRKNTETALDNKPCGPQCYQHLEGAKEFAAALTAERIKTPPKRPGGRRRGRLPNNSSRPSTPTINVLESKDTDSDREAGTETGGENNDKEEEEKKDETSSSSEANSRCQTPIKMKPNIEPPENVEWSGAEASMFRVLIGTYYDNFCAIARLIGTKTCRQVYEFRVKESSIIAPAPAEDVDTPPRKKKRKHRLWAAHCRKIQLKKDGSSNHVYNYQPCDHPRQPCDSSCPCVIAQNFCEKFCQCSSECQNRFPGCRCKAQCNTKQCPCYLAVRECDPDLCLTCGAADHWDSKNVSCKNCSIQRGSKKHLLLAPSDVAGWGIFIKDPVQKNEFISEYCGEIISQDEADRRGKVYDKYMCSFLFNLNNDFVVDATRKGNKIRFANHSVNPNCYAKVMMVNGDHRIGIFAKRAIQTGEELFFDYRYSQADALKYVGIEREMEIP
Test: cryo-EM structure; 800 nM automethylated PRC2 with 200 nM biotinylated nucleosome and 100 μM SAH in 25 mM HEPES pH 7.9, 50 mM KCl, 1 mM TCEP, 30 minutes at RT; nucleosome held on streptavidin affinity grids; classes of a PRC2 dimer and of a PRC2 monomer on the nucleosome
Settings: both partners purified

B1: Embryonic ectoderm development (EED), subunit of recombinant human PRC2 (natural protein)
chain: not shown
notes: EED, human, full-length; Stood in the assay as a subunit of PRC2; also called EED^prox; EED^dist; source: as subunit of m1: HighFive / Trichoplusia ni insect cells, baculovirus, purified within PRC2
B1: binds.
